From the DeepSol protein solubility set

Assay: soluble on expression in E. coli; label from the status in PepcDB or PDB records

Sequence | soluble on expression in E. coli
MLKSEDADYEKAMKDKVGTGPQEYLKQLSDSLVKNQSAASVEVVSGATHSSDAFINYANQLIQAAQKADTTTISINNLAKMEDGTYKLEEQNYAHGYRVVFSMDVKDGKITKSDYNYVDKDGKLKSDDADYEKNMKAKSGTGPKEYIPALNKSLVEKQDVAAVDTVSGATNSSNQFKIYAAQLQNAAQNGNTDTIKVYNLVEAELEHHHHHH | soluble
AAPDEITTAWPVNVGPLNPHLYTPNQMFAQSMVYEPLVKYQADGSVIPWLAKSWTHSEDGKTWTFTLRDDVKFSNGEPFDAEAAAENFRAVLDNRQRHAWLELANQIVDVKALSKTELQITLKSAYYPFLQELALPRPFRFIAPSQFKNHETMNGIKAPIGTGPWILQESKLNQYDVFVRNENYWGEKPAIKKITFNVIPDPTTRAVAFETGDIDLLYGNEGLLPLDTFARFSQNPAYHTQLSQPIETVMLALNTAKAPTNELAVREALNYAVNKKSLIDNALYGTQQVADTLFAPSVPYANLGLKPSQYDPQKAKALLEKAGWTLPAGKDIREKNGQPLRIELSFIGTDALSKSMAEIIRADMRQIGADVSLIGEEESSIYARQRDGRFGMIFHRTWGAPYDPHAFLSSMRVPSHADFQAQQGLADKPLIDKEIGEVLATHDETQRQALYRDILTRLHDEAVYLPISYISMMVVSKPELGNIPYAPIATEIPFEQIKPVKP | soluble
MGSDKIHHHHHHKQLVHEGYRVTGCKRSAEELSALTEVGIEAYPLQLGSEAPSAPDAQALSGLFQTDYLVVNIPPRLKRGNAAYLEELQQLIALTQGWQYQQIVFISTTGVYPAKDKVMTEADALAESSDSQVLLDAEALFQVLPHACIVRFAGLVGPKRHPGRFLAGKTDVSGANVAVNLVHLSDCVSAVSRILAATGSGLSVAPIYNLCAPTHPTKAEFYQAAAESLGLVAPEFNQQSMPSKVIQGDAIVTDLGFRYQYASPQDMLAAC | not soluble
MSLTEWLTIFDSERNTLGKKLRDEVHRDGNWHETFHCWFVEKDAEDMFLYFQLRSKNKKEAPLIWDITSAGHIMHDEDVQIGGLREIEEELGLSFQTTDLAYKGIFTIDYEISNLTDREFCHMYFHNVINPLPFAPGEEVDDVMKIHATSFLQLLKREISSFTATSVLSNKSITITFSDIYPYDFAYYEFVVEQGKELLKNNDEGHHHHHH | soluble
MNNNELYVSLDLGTSNTKVIVGEMTGDSLNIIGVGNVPSEGLKKGSIVDIDETVHSIRKAFDQAERMVGFPLRKAIVGVNGNYINIQDTNGVVAVSSENKEIQVEDVRRVMAAAQVVSVPHEQLIVDVIPKQFIVDGRDEITDPKKMLGVRLEVEGTLITGSKTILHNLLRCVERAGIEITDICLQPLAAGSAALSKDEKNLGVALIDIGGGSTTIAVFQNGHLTSTRVIPLGGENITKDISIGLRTSTEEAERVKKQLGHAYYDEASEDEIFEVTVIGTNQKQTFTQQEAANIIEARVEEILEIVSEELRSMGITDLPGGFVLTGGQAAMPGVMSLAQDVLQNNVRVQGPNYIGVRDPQYMTGVGLIQFACRNARIQGRKIGFKMPEEAIQEIAVSSSEEQEQHHHQNEVQQRPKGKQKTQAEHNKQSKMKKLLSMFWE | not soluble
MGFLERIKKLFSKEEEKQEESILSNPLERLKKGDIIEIDGETWEVTDVALYDYGASKEKEWEIRSASRRGFLSLEEGKIYFFEEIDPEELEPDPGEHFRKYGKPPEYVTYKGKRYRLKYAGKAKYIKNLESYPVTIWEFRSEDGEMIDLEIWDEYEIEAYKGRELQEWEIESILPR | not soluble
MGSDKIHHHHHHMQKLTRINDFNEVLNSRKSVKVFDENYKIPREEMDEIITKATKAPSSVNMQPWRIAVVQSDEMKEKVKESFGFNSRQLTTSSAMLIIFGDLQNYEKAEQIYGDAVEQQLMTEDIKAQLLDWILPYYKNLSREGMKDIVNIDSSLMAMQLMLTAKAHGYDTNPIGGFDKENIADIIGYDSDRYVPVLAIAIGKKAQDAHDSVRLPIDDVREFL | not soluble
GMIRLLYLLVKPAGMSDETFRAECLRHYEMSHDVPGLHKYEVRLVAEQPTDTHVPFFDIGHVDAIGECWFKDDAAYATYMASDIRKAWFEHGKTFIGQLKPFRTAPVAGDEPAS | soluble
IRDFSYGVKFVLSDSQQKILKYPNEDYNIGTYYKGQKLNNIWGYKTIGIAQSQEEMDAHLAKVDQSALGSKWGAGDIMYADLDGDGKISTGSNKLGDTGDRVILGNSTPRFNYGLTIDASWKGIDFRAFFQGIGKRDYWLQGPYFWGSTGLGQWQAAGFKEHWDFWRPEGDPLGANTNAYYPRVARNGGKNTNVQSRYLQNAAYCRLKNIQIGYTLPKTWTEKAGMSSVRVYVSGDNLLTFSDITGIFDPEAIGSTYDANNGKLYPLQRVISVGLNVNF | not soluble
MTQHPFISRVAVRNYKSIGYCDVNLRPLTYLVGHNGAGKSNFMDALHFVCDALSYSLDSALNERGGINEVRRRSGGHPTHFALRVEFVMQSGQAGRYGFVIGALKNGGYEVQREECVVAGIGKGPFFRIEKGKLRDSSETTFPSVTADRLALVAASGLTAFRPVFDALTAMGFYNLNPKLMRELQKPQDGRLLRPAGENIASVIGHLEKVAPAQMALIQEYLHSVAPMVHGVERKPIGPMETLEFRQDMAGSKHPWRFLAQNMSDGTLRALGVLSALLQGNVDYSPTLIGIEEPETALHPAASAALREALVRASETTQVLVTSHSPDLLDDHSIDADAVLAVVSEAGETKVAPLDEGSRQVMRDHLFSAGELLRMNQLAPDRASLEQQDKAASGDLFGETESVLEHHHHHH | soluble
MSLALFYGRKITVAGISKRGSETALEISEKLSEKGLAVKCYSRSNLKGCNTYIGSTQNFVLSEVRKSDVLVLVMSLGGAVRIIEKASILKEEGIAVIVVDDYGRYAIPIVNGHSGSANVFARLISELIGSEYIITDAVELNGLMSVEEMSRRLYCTIANPECVLKINTALANGDPVFARNESSKRKHAFEMIKYPWKTYSRSDDAKIIITDRPGEGGEICYLVPDDISVGIGFTGKADPYNIKKRIEEVLLSLGLGYDDVNCVSSLRYNKFLSELIKDNGTEFRTFSADDLKSVDVSLLSHISEEAEEKLGIPGSAEPSALLSLGPGSRIIYPFTKFDHSMTISVASRREGHHHHHH | soluble
MGSDKIHHHHHHMYGKTELMMSNACGLDFGTSNSTVGWTRPGHPAALLPLEDGKLTLPSVIFFHAEDPLVSYGRAALDDYLAGYEGRLMRSLKSLLGTSMMEDSTEVMGQAMPFRKLLAHFIGELKARAERSAGTTFTRAVLGRPVFFIDEDPAADRLAEQTLAEIARDAGFRDIEFQYEPIAAAFDYEAKISDEELVLVVDIGGGTSDFSLVRLSPERAKRIDRREDILANGGVHIGGTDFDRALSLARAMPLLGLGSKLRSGKEMPSSQYFDLASWHTINLVYTRKAWSIVMDNYRDAADTVKLDRLIRLIRERAGHWLAIQMEAAKIALSGVDRTDVDLHRIEPELMLSITRDEFDESIGKLVAKTEKTVTDMLASAGVDGASVDTILFTGGSSSVPMLRHQLGQLLPRARRVEGDLFGGIGSGLALDAARKFG | not soluble
MGSDKIHHHHHHMIGVRLLVKMSFRSGFRVGRGNETDSTLPTIHSDTIYGAVVYHAFKWSEKAEDFAKKLKVSSLLFVRGDRLLVPKPFLYNTYSLEEDDEESPKELKKASYVFLDKLADYRSIKEASGAVCKENPVEIVRIPRNSLDRITSSSNLYFVEVAFVKEGFTPAFLAEFPDEYEGLFKTAVKSLGDSGIGADSTYGYGLFNAEFESAPDFPEEGEYYLTLSLFVPSAEERSKMNEGYYRVVKRRGVKRDEMKVKKEISYVQEGSVFPFKPEGRGVLKIEDYFVQTSPLCVAFGGDGK | not soluble
HMVHITLDPDTANPWLILSEDRRQVRLGDTQQSIPGNEERFDSYPMVLGAQHFHSGKHYWEVDVTGKEAWDLGVCRDSVRRKGHFLLSSKSGFWTIWLWNKQKYEAGTYPQTPLHLQVPPCQVGIFLDYEAGMVSFYNITDHGSLIYSFSECAFTGPLRPFFSPGFNDGGKNTAPLTLCPL | soluble
QRSTFGTKHMVFRTDQLIDGIERNVRITSEEVNAALPVPLLDRQDPGAILISGSSYTEPSEALQTMREAMTQEKFSGSVEIPLGIVRALLDLGFTDEAASWLEDLVPRLGNEWRHQWYSGVTSLLLDDYLTAQQHFNEVYNILPGESAPKLARAAVCEMLLQEKGLESTALLDPAVTVAAADIKGEGMSNIWRELTSDPATLRFKAIYLYALVWRTNPTTVSSAFGLARQLAAENQIDLAVSTLDRVPQNSTHRRMAELTAILHLLGDLSEARLRRAARRLEAIPTNEPRFLQIQIAIMNAALQWLRTGGEAANDPIFEYPFTQRGLRNGLSATLRQLARSAPSSHRYALVDVANQVRPMTWF | not soluble
MQTKEKLASLSYLAVKSLLYELNLTPKPGLVDCHNNGAHNDMDFYTFLDSILSLSPFFKKYIEVGWLYHNESPQYLFNQLRKLGIEAEAAMFSATERVNTHKGINFSFALLLGATGSYLAKHIELIQEKRRFMPQDSLTICHLAGEMSMHLIQNDLSHVETKRNLTYGEKLFLQYGLKGLRGEASQGYPSLTQKALPFFRNELLKKQDIQISQLKLLLYLMTFIEDSNIIHRGGIKSWKKVQQEAQTLLEKDLPPYQLKEQLNSYNQILTDRHLSPGGAADLLSLTLYFSFLEQLI | not soluble
MILVVDNYDSFTYNLVDIVAQHTDVIVQYPDDDNVLNQSVDAVIISPGPGHPLDDQQLMKIISTYQHKPILGICLGAQALTCYYGGEVIKGDKVMHGKVDTLKVISHHQHLLYQDIPEQFSIMRYHSLISNPDNFPEELKITGRTKDCIQSFEHKERPHYGIQYHPESFATDYGVKIITNFINLVKEG | not soluble
MAHHHHHHMATSLSDVNHIILVLSGKGGVGKSTVACQLALALANVHGKKVGLLDVDICGPSVPTICGVTGKDVYRGDAGWEPVSLFHEQHEADTAASATGNVKIMSIAFLLPSENDAVVWRGPKKDAMIRQFVTDVHWGALDYLIIDTPPGTSDEHLTLCEVLKPFNTAGAVIVTTPQDVATDDVKKELSLCHKLELRCLGVVENMSGFVCPHCAHCTDIFSKGGGKKLAEMYEVEFLGAIPIDPTLSLAEDKGQCFVTTATDANSPTVRKTVAAVTGVIDAILKQVEKSAQLQQRH | soluble
MPLTFAHSFADAVPSLSVPWRAEQWPDPRIIVFNHELGQELGIDEASLLSNITQQGHAQAYSGHQFGQFNPLLGDGRALVLGDCAQTNAPHGQFEISLKGSGPTPFARRGDGRATLGPMLREYLISEALHGLGIPTTRSLAVITTGTDVQRERLLPGAVVVRVAQNHLRVGSVQCAAMRDDDSLAALVRYALSSHEDGVSDAEAAGLLLRRVSTSQAKLVAQWMRFGFVHGVMNTDNVTLSGQTIDFGPCAFIDSFHPQAVFSSIDSHGRYSFGRQPSIMGWNIARLAEALLPLMSIDEARNIVHEFPDMYRRSWLDEMADAVGISPDDDHAAGVLDDLVALLDVHRPDYAQFMRSLSDGTTVSLFPWAQQWEAEVSSLRVAAPRNPVYVPRNYLVEDALEHAMNADMSVFSLLVEAGKNPYLREKRFEKLENPAPETWQDYVTYCGTLEHHHHHH | soluble
SMHFVQQKVKVFRAADPLVGVFLWGVAHSINELSQVPPPVMLLPDDFKASSKIKVNNHLFHRENLPSHFKFKEYCPQVFRNLRDRFGIDDQDYLVSLTRNPPSESEGSDGRFLISYDRTLVIKEVSSEDIADMHSNLSNYHQYIVKCHGNTLLPQFLGMYRVSVDNEDSYMLVMRNMFSHRLPVHRKYDLKGSLVSREASDKEKVKELPTLRDMDFLNKNQKVYIGEEEKKIFLEKLKRDVEFLVQLKIMDYSLLLGIHDIIRGSEPEEEAPVREDESEVDGDCSLTGPPALVGSYGTSPEGIGGYIHSHRPLGPGEFESFIDVYAIRSAEGAPQKEVYFMGLIDILTQYDAKKKAAHAAKTVKHGAGAEISTVHPEQYAKRFLDFITNIFA | soluble
